The supplement of paper PMC9112550, “Optimization of the antimicrobial peptide Bac7 by deep mutational scanning” (BMC Biology, 2022)

System: Escherichia coli TOP10
Assay: shrunken log2 fold change of peptide-encoding DNA abundance (4.5 h post-induction vs induction); higher = less antimicrobial activity (less host growth inhibition)
Settings: time post-induction: 4.5 h; library: site-saturation at positions 5, 18, 19, 20
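Note: peptides expressed intracellularly from a pBAD plasmid library in pooled LB shake-flask culture, induced with 0.3% L-arabinose, DNA abundance read by NGS, three biological replicates, DESeq2 with apeglm shrinkage.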

Sequence | shrunken log2 fold change
RRIRRRPPRLPRPRPRPNLHPRP | -0.288
RRIRIRPPRLPRPRPRPQGRPRP | -0.25
RRIRQRPPRLPRPRPRPLIHPRP | -0.708
RRIRMRPPRLPRPRPRPQEIPRP | -0.00046
RRIRVRPPRLPRPRPRPVNFPRP | 0.02
RRIRPRPPRLPRPRPRPLPHPRP | -0.206
RRIRCRPPRLPRPRPRPLHRPRP | 0.06
RRIRERPPRLPRPRPRPKKQPRP | -0.0932
RRIRKRPPRLPRPRPRPTWCPRP | 0.263
RRIRLRPPRLPRPRPRPWWQPRP | -0.179
RRIRQRPPRLPRPRPRPRFHPRP | -0.177
RRIRWRPPRLPRPRPRPQQIPRP | -0.0385
RRIRPRPPRLPRPRPRPLWRPRP | 0.446
RRIRGRPPRLPRPRPRPYSFPRP | 0.0271
RRIRLRPPRLPRPRPRPGDNPRP | 0.0735
RRIRSRPPRLPRPRPRPQLSPRP | -0.106
RRIRSRPPRLPRPRPRPEDFPRP | -0.149
RRIRSRPPRLPRPRPRPGFMPRP | -0.101
RRIRIRPPRLPRPRPRPFNFPRP | -0.31
RRIRVRPPRLPRPRPRPFSHPRP | -0.358
RRIRWRPPRLPRPRPRPPGTPRP | 0.475
RRIRIRPPRLPRPRPRPSADPRP | -0.235
RRIRGRPPRLPRPRPRPRHHPRP | 2.5
RRIRCRPPRLPRPRPRPNDWPRP | -0.166
RRIRKRPPRLPRPRPRPLLYPRP | 0.0166

Sequence | shrunken log2 fold change
RRIRCRPPRLPRPRPRPIFYPRP | -0.32
RRIRQRPPRLPRPRPRPLEQPRP | 0.0165
RRIRKRPPRLPRPRPRPYSCPRP | -0.0242
RRIRIRPPRLPRPRPRPKTGPRP | -0.388
RRIRMRPPRLPRPRPRPMEVPRP | 0.0214
RRIRTRPPRLPRPRPRPEIGPRP | -0.103
RRIRRRPPRLPRPRPRPEYCPRP | 0.0246
RRIRVRPPRLPRPRPRPMFSPRP | -0.284
RRIRHRPPRLPRPRPRPVPSPRP | 0.0513
RRIRDRPPRLPRPRPRPNDIPRP | -0.211
RRIRQRPPRLPRPRPRPFRTPRP | -0.255
RRIRQRPPRLPRPRPRPSPSPRP | -0.144
RRIRCRPPRLPRPRPRPPTCPRP | 0.183
RRIRWRPPRLPRPRPRPKHLPRP | 0.0564
RRIRMRPPRLPRPRPRPGAPPRP | 1.31
RRIRHRPPRLPRPRPRPLNTPRP | -0.351
RRIRNRPPRLPRPRPRPHNLPRP | -0.272
RRIRSRPPRLPRPRPRPRKWPRP | 0.139
RRIRFRPPRLPRPRPRPYLKPRP | -1.36
RRIRWRPPRLPRPRPRPFYCPRP | -0.151
RRIRHRPPRLPRPRPRPLMCPRP | 0.0994
RRIRVRPPRLPRPRPRPHQCPRP | 0.00485
RRIRWRPPRLPRPRPRPRGCPRP | 0.961
RRIRARPPRLPRPRPRPTEIPRP | -0.0477
RRIRKRPPRLPRPRPRPMHVPRP | -0.0434

Sequence | shrunken log2 fold change
RRIRKRPPRLPRPRPRPCMVPRP | 0.309
RRIRMRPPRLPRPRPRPNAAPRP | 2.83
RRIRYRPPRLPRPRPRPLHQPRP | -0.608
RRIRLRPPRLPRPRPRPHQQPRP | 0.0445
RRIRNRPPRLPRPRPRPTPMPRP | 0.0289
RRIRIRPPRLPRPRPRPNGNPRP | -0.365
RRIRRRPPRLPRPRPRPYNVPRP | -0.181
RRIRNRPPRLPRPRPRPHFEPRP | 0.066
RRIRSRPPRLPRPRPRPHSSPRP | 0.171
RRIRQRPPRLPRPRPRPLEFPRP | 0.052
RRIRFRPPRLPRPRPRPVISPRP | -0.674
RRIRWRPPRLPRPRPRPILWPRP | 0.117
RRIRIRPPRLPRPRPRPQQMPRP | -0.0189
RRIRIRPPRLPRPRPRPKHSPRP | -0.447
RRIRRRPPRLPRPRPRPNSQPRP | -0.154
RRIRQRPPRLPRPRPRPMKVPRP | 0.0879
RRIRYRPPRLPRPRPRPMLQPRP | -0.229
RRIRERPPRLPRPRPRPYTWPRP | -0.161
RRIRIRPPRLPRPRPRPCIFPRP | -0.402
RRIRERPPRLPRPRPRPVPMPRP | -0.041
RRIRIRPPRLPRPRPRPPIPPRP | 0.00551
RRIRYRPPRLPRPRPRPMKCPRP | -0.905
RRIRMRPPRLPRPRPRPEHHPRP | 0.323
RRIRRRPPRLPRPRPRPQNKPRP | -0.172
RRIRDRPPRLPRPRPRPTSHPRP | -0.146

Sequence | shrunken log2 fold change
RRIRERPPRLPRPRPRPLGHPRP | 0.187
RRIRMRPPRLPRPRPRPDWIPRP | -0.017
RRIRVRPPRLPRPRPRPPTAPRP | 0.43
RRIRERPPRLPRPRPRPKMSPRP | 0.148
RRIRFRPPRLPRPRPRPVCEPRP | 0.182
RRIRERPPRLPRPRPRPRFRPRP | 0.0352
RRIRARPPRLPRPRPRPPTGPRP | 0.663
RRIRMRPPRLPRPRPRPNRSPRP | -0.0367
RRIRMRPPRLPRPRPRPFYTPRP | -0.364
RRIRWRPPRLPRPRPRPYQCPRP | -0.325
RRIRKRPPRLPRPRPRPAFLPRP | 0.245
RRIRSRPPRLPRPRPRPTDCPRP | -0.0926
RRIRTRPPRLPRPRPRPYEFPRP | -0.202
RRIRVRPPRLPRPRPRPQTRPRP | 0.355
RRIRPRPPRLPRPRPRPAKGPRP | 0.403
RRIRNRPPRLPRPRPRPEPAPRP | 0.88
RRIRERPPRLPRPRPRPHDIPRP | -0.0102
RRIRKRPPRLPRPRPRPNCKPRP | 0.495
RRIRRRPPRLPRPRPRPHRPPRP | 0.203
RRIRHRPPRLPRPRPRPMCAPRP | -0.446
RRIRTRPPRLPRPRPRPPEKPRP | 0.0774
RRIRFRPPRLPRPRPRPVVHPRP | -0.106
RRIRFRPPRLPRPRPRPNGCPRP | -0.0256
RRIRCRPPRLPRPRPRPAISPRP | 0.0324
RRIRKRPPRLPRPRPRPQHPPRP | 0.105

Sequence | shrunken log2 fold change
RRIRYRPPRLPRPRPRPGFQPRP | -1.11
RRIRVRPPRLPRPRPRPDATPRP | 0.299
RRIRMRPPRLPRPRPRPFSEPRP | 0.273
RRIRFRPPRLPRPRPRPVTTPRP | 0.173
RRIRHRPPRLPRPRPRPVRMPRP | 0.246
RRIRQRPPRLPRPRPRPKTNPRP | -0.117
RRIRSRPPRLPRPRPRPLGCPRP | 0.285
RRIRMRPPRLPRPRPRPCKPPRP | -0.173
RRIRPRPPRLPRPRPRPGIHPRP | -0.137
RRIRERPPRLPRPRPRPGQQPRP | -0.0809
RRIRFRPPRLPRPRPRPFGHPRP | -0.19
RRIRLRPPRLPRPRPRPITLPRP | -0.553
RRIRQRPPRLPRPRPRPTVHPRP | -0.367
RRIRYRPPRLPRPRPRPNRNPRP | -1
RRIRPRPPRLPRPRPRPWSCPRP | -0.165
RRIRIRPPRLPRPRPRPMYIPRP | -0.0364
RRIRDRPPRLPRPRPRPEDSPRP | 0.882
RRIRDRPPRLPRPRPRPVHRPRP | 0.0594
RRIRGRPPRLPRPRPRPTCLPRP | 0.576
RRIRDRPPRLPRPRPRPELYPRP | 1.13
RRIRTRPPRLPRPRPRPRQRPRP | 0.394
RRIRHRPPRLPRPRPRPGHTPRP | 0.105
RRIRDRPPRLPRPRPRPVSKPRP | 0.0275
RRIRTRPPRLPRPRPRPPMCPRP | 0.0176
RRIRDRPPRLPRPRPRPMCQPRP | 0.0359

Sequence | shrunken log2 fold change
RRIRTRPPRLPRPRPRPWFKPRP | -0.214
RRIRIRPPRLPRPRPRPLHQPRP | -0.121
RRIRMRPPRLPRPRPRPQLPPRP | -0.105
RRIRYRPPRLPRPRPRPVEEPRP | -0.32
RRIRHRPPRLPRPRPRPHCTPRP | -0.0731
RRIRCRPPRLPRPRPRPYGAPRP | -0.569
RRIRYRPPRLPRPRPRPDPIPRP | -0.168
RRIRYRPPRLPRPRPRPLPKPRP | 0.116
RRIRGRPPRLPRPRPRPSQGPRP | -0.187
RRIRIRPPRLPRPRPRPRQPPRP | -0.0694
RRIRHRPPRLPRPRPRPDYMPRP | -0.336
RRIRDRPPRLPRPRPRPVVPPRP | 0.0405
RRIRGRPPRLPRPRPRPAHIPRP | 0.0667
RRIRARPPRLPRPRPRPLMRPRP | 1.45
RRIRRRPPRLPRPRPRPWPSPRP | 0.0392
RRIRERPPRLPRPRPRPSYFPRP | -0.48
RRIRTRPPRLPRPRPRPGYCPRP | -0.184
RRIRCRPPRLPRPRPRPCVSPRP | -0.0805
RRIRFRPPRLPRPRPRPWFAPRP | -0.582
RRIRIRPPRLPRPRPRPKTWPRP | -0.258
RRIRFRPPRLPRPRPRPTPIPRP | 0.485
RRIRRRPPRLPRPRPRPMCWPRP | 0.0358
RRIRQRPPRLPRPRPRPYSPPRP | -0.13
RRIRARPPRLPRPRPRPGQRPRP | 0.107
RRIRNRPPRLPRPRPRPFMDPRP | 0.0237
